Measured values as given in paper doi:10.1101/545921 (bioRxiv, 2019).

B1: Glycolytic glyceraldehyde-3-phosphate dehydrogenase of Arabidopsis thaliana (AtGAPC1), native / reduced (enzyme, UniProt P25858 1-338, looked up)
chain: MADKKIRIGINGFGRIGRLVARVVLQRDDVELVAVNDPFITTEYMTYMFKYDSVHGQWKHNELKIKDEKTLLFGEKPVTVFGIRNPEDIPWAEAGADYVVESTGVFTDKDKAAAHLKGGAKKVVISAPSKDAPMFVVGVNEHEYKSDLDIVSNASCTTNCLAPLAKVINDRFGIVEGLMTTVHSITATQKTVDGPSMKDWRGGRAASFNIIPSSTGAAKAVGKVLPALNGKLTGMSFRVPTVDVSVVDLTVRLEKAATYDEIKKAIKEESEGKLKGILGYTEDDVVSTDFVGDNRSSIFDAKAGIALSDKFVKLVSWYDNEWGYSSRVVDLIVHMSKA
B2: IAM-pretreated AtGAPC1 WT (WT-IAM) (enzyme, Arabidopsis thaliana, UniProt P25858 1-338, looked up)
chain: B1 chain
modifications: Cys149 alkylated by iodoacetamide (IAM)
B3: H2O2-oxidized AtGAPC1 (AtGAPC1-SO2H) (enzyme, Arabidopsis thaliana, UniProt P25858 1-338, looked up)
chain: B1 chain
modifications: sulfinic acid or sulfinate (-SO2H or -SO2-) at Cys149

Target: the molecule itself
Assay: dynamic light scattering

Row | Protein | stoichiometry N
1 | B1 | 4
2 | B2 | 4
3 | B3 | 4
